Results taken from patent US20260184782A1.

Molecular target: human TIGIT-Fc (human) (UniProt Q495A1)
Assay: CD155 competition ELISA, single point

human TIGIT-Fc (human), sequence (Q495A1 22-141 limits assumed): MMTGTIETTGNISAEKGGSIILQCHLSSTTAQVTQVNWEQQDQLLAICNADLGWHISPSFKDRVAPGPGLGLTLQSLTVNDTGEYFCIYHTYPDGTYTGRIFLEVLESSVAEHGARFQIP

- OD (450 nm): 0.8 OD
B1: TIGIT-SC153 (Fc fusion)
VHH: EVQLVESGGGLVQPGGSLRLSCAASGNTFSGGFMGWFRQAPGKEREWVASVLRGGYTWYADSVKGRFTISADNSKNTAYLQMNSLKPEDTAVYYCARAGGCSGTSCYDGWFDPWGQGTLVTVSS
